In the experiment the target is Clostridium difficile strain 630 alanine racemase, recombinant wild type (Clostridium difficile strain 630, UniProt A0AC59G415 1-385). Kind of experiment: SEC. Conditions: both partners purified.

Experimental findings from publication PMC4089486 (Acta Crystallographica Section D: Biological Crystallography, 2014) are described below.

B1: CdAlr cleavage product, amino acids 1-271 (domain or fragment)
chain: MQKITVPTWAEINLDNLRFNLNNIKNLLEEDIKICGVIKADAYGHGAVEVAKLLEKEKVDYLAVARTAEGIELRQNGITLPILNLGYTPDEAFEDSIKNKITMTVYSLETAQKINEIAKSLGEKACVHVKIDSGMTRIGFQPNEESVQEIIELNKLEYIDLEGMFTHFATADEVSKEYTYKQANNYKFMSDKLDEAGVKIAIKHVSNSAAIMDCPDLRLNMVRAGIILYGHYPSDDVFKDRLELRPAMKLKSKIGHIKQVEPGVGISYGLK
With B1, the binding result was “binds”.
